Experimental data taken from publication PMC10786891, “Massively parallel profiling of RNA-targeting CRISPR-Cas13d”.
Substitutions are numbered along the chain they refer to. Numbers in names are those of the source.

T1: EsCas13d, nuclease-dead (Eubacterium siraeum, UniProt B0MS50, R295A;H300A;R849A;H854A)
T1 sequence: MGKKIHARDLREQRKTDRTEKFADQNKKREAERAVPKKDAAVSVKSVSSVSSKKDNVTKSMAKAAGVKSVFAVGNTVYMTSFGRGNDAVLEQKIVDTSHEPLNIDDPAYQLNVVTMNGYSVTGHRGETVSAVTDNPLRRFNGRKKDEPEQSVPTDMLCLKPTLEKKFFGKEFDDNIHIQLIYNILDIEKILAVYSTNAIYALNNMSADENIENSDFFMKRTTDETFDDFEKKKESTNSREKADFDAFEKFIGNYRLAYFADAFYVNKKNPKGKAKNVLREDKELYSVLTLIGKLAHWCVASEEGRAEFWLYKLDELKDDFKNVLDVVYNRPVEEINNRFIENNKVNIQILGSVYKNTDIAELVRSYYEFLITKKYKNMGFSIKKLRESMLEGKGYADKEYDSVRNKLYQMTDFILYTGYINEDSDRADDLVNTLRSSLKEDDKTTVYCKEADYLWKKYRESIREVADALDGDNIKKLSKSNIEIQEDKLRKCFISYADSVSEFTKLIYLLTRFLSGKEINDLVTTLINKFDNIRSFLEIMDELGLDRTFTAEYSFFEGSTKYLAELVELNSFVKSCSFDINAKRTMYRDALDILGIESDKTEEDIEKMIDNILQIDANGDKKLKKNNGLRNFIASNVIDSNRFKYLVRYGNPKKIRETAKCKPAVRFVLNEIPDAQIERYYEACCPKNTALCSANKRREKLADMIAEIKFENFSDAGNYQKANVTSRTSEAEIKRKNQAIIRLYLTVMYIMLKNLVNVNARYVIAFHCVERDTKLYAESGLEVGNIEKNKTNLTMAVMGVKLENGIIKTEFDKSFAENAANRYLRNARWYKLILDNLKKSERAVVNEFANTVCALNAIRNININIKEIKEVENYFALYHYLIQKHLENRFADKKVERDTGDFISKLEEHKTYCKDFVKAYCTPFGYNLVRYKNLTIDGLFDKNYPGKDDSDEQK

B1: target 1 insG 3' of 8 (mixed)
RNA 1: CACCCGUGCAAAAAUGCAGGGGUCUAAAACUGAGCGGAUAACCUCUCUAUGG
RNA 2: GGGAAUGGAUCCACAUCUACGAAUUCGUACCAUAGAGAGGUUAUGCCGCUCACCGAGAUCGGAAGAGCACACGU
B2: target 1 insC 3' of 9,insG 3' of 3 (mixed)
RNA 1: B1 RNA 1
RNA 2: GGGAAUGGAUCCACAUCUACGAAUUCGUACCAUAGAGAGGUUACUCCGCUGCACCGAGAUCGGAAGAGCACACGU
B3: target 1 insG 3' of 18,insC 3' of 15 (mixed)
RNA 1: B1 RNA 1
RNA 2: GGGAAUGGAUCCACAUCUACGAAUUCGUACCAUAGGAGCAGGUUAUCCGCUCACCGAGAUCGGAAGAGCACACGU
B4: target 1 G12U,A14G (mixed)
RNA 1: B1 RNA 1
RNA 2: GGGAAUGGAUCCACAUCUACGAAUUCGUACCAUAGAGGGUUUAUCCGCUCACCGAGAUCGGAAGAGCACACGU
B5: target 1 insA 3' of 21,insG 3' of 21 (mixed)
RNA 1: B1 RNA 1
RNA 2: B3 RNA 2 with U33G, G35U, G36A, A37G, G38A, C39G
B6: target 1 insG 3' of 9,insU 3' of 2 (mixed)
RNA 1: B1 RNA 1
RNA 2: B2 RNA 2 with C44G, G51C, C52U
B7: target 1 insC 3' of 16,insG 3' of 10 (mixed)
RNA 1: B1 RNA 1
RNA 2: B3 RNA 2 with G36A, A37C, C39A, A40G, G42U, U44G
B8: target 1 insU 3' of 15,insU 3' of 1 (mixed)
RNA 1: B1 RNA 1
RNA 2: B2 RNA 2 with A38U, G39A, U41G, A43U, C44A, G51C, C52A, A53U
B9: target 1 insG 3' of 6,insU 3' of 4 (mixed)
RNA 1: B1 RNA 1
RNA 2: B2 RNA 2 with C44U, U45C, C47G, G51U
B10: target 1 U8C,A16G (mixed)
RNA 1: B1 RNA 1
RNA 2: B4 RNA 2 with A36G, G38A, U40G, U44C
B11: target 1 insA 3' of 13,insU 3' of 6 (mixed)
RNA 1: B1 RNA 1
RNA 2: B2 RNA 2 with G40A, U41G, A43U, C44A, G48U, C49G, U50C, G51U
B12: target 1 U3C,G13A (mixed)
RNA 1: B1 RNA 1
RNA 2: B4 RNA 2 with G38A, G39A, U40G, U49C
B13: target 1 U8C,A9G (mixed)
RNA 1: B1 RNA 1
RNA 2: B4 RNA 2 with G38A, U40G, A43G, U44C
B14: target 1 insC 3' of 11,insC 3' of 8 (mixed)
RNA 1: B1 RNA 1
RNA 2: B2 RNA 2 with U42C, A43U, C44A, G48C, C49G, U50C, G51U
B15: target 1 insA 3' of 6,insU 3' of 2 (mixed)
RNA 1: B1 RNA 1
RNA 2: B2 RNA 2 with C44U, U45C, C47A, G51C, C52U
B16: target 1 insC 3' of 13,insU 3' of 7 (mixed)
RNA 1: B1 RNA 1
RNA 2: B2 RNA 2 with G40C, U41G, A43U, C44A, C47U, G48C, C49G, U50C, G51U
B17: target 1 A14U,G15C (mixed)
RNA 1: B1 RNA 1
RNA 2: B4 RNA 2 with G37C, G38U, U40G
B18: target 1 insU 3' of 15,insG 3' of 1 (mixed)
RNA 1: B1 RNA 1
RNA 2: B2 RNA 2 with A38U, G39A, U41G, A43U, C44A, G51C, C52A, A53G
B19: target 1 insU 3' of 13,insU 3' of 5 (mixed)
RNA 1: B1 RNA 1
RNA 2: B2 RNA 2 with G40U, U41G, A43U, C44A, C49U, U50C, G51U
B20: target 1 insU 3' of 15,insA 3' of 2 (mixed)
RNA 1: B1 RNA 1
RNA 2: B2 RNA 2 with A38U, G39A, U41G, A43U, C44A, G51C, C52A
B21: target 1 insU 3' of 15,insC 3' of 1 (mixed)
RNA 1: B1 RNA 1
RNA 2: B2 RNA 2 with A38U, G39A, U41G, A43U, C44A, G51C, C52A, A53C
B22: target 1 insU 3' of 20,insA 3' of 3 (mixed)
RNA 1: B1 RNA 1
RNA 2: GGGAAUGGAUCCACAUCUACGAAUUCGUACCAUUAGAGAGGUUAUCCGCUACACCGAGAUCGGAAGAGCACACGU
B23: target 1 insC 3' of 11,insG 3' of 6 (mixed)
RNA 1: B1 RNA 1
RNA 2: B2 RNA 2 with U42C, A43U, C44A, C49G, U50C, G51U
B24: target 1 U8C,U11C (mixed)
RNA 1: B1 RNA 1
RNA 2: B4 RNA 2 with G38A, U40G, U41C, U44C
B25: target 1 U11G,G13A (mixed)
RNA 1: B1 RNA 1
RNA 2: B4 RNA 2 with G38A, G39A, U40G, U41G
B26: target 1 U3G,C6G (mixed)
RNA 1: B1 RNA 1
RNA 2: B4 RNA 2 with G38A, U40G, C46G, U49G
B27: target 1 insG 3' of 10,insG 3' of 2 (mixed)
RNA 1: B1 RNA 1
RNA 2: B2 RNA 2 with A43G, C44A, G51C, C52G
B28: target 1 insU 3' of 14,insC 3' of 13 (mixed)
RNA 1: B1 RNA 1
RNA 2: B3 RNA 2 with G36A, A37G, G38A, C39U, A40G, G41C
B29: target 1 U3C,U11A (mixed)
RNA 1: B1 RNA 1
RNA 2: B4 RNA 2 with G38A, U40G, U41A, U49C
B30: target 1 insC 3' of 16,insA 3' of 3 (mixed)
RNA 1: B1 RNA 1
RNA 2: B22 RNA 2 with U34A, A35G, G36A, A37C
B31: target 1 insC 3' of 13,insA 3' of 8 (mixed)
RNA 1: B1 RNA 1
RNA 2: B2 RNA 2 with G40C, U41G, A43U, C44A, C46A, G48C, C49G, U50C, G51U
B32: target 1 A9U,C22A (mixed)
RNA 1: B1 RNA 1
RNA 2: B4 RNA 2 with C30A, G38A, U40G, A43U
B33: target 1 del2,del15 (mixed)
RNA 1: B1 RNA 1
RNA 2: GGGAAUGGAUCCACAUCUACGAAUUCGUACCAUAGAAGGUUAUCCGCUACCGAGAUCGGAAGAGCACACGU

Each binder was assayed against T1, EsCas13d, nuclease-dead (assay: crRNA (strand 1, pre-loaded); Mg2+; 40 mM Tris-HCl pH 7.5, 150 mM NaCl, 6 mM MgCl2, 1 mM DTT, 0.1% Tween-20, 0.2 mg/ml BSA; 25 C; 10 min per concentration, then washed). Conditions: tags: His6-TwinStrep-SUMO cleaved; N-terminal SNAP kept (SNAP-Surface 488); label: 3' end held by stalled T7 RNA polymerase.

For B1, which Kd is on record?
The Kd was 0.0129 ± 0.0005 µM.

B2 was tested. Which Kd did it give?
Its Kd is 0.0073 ± 0.0005 µM.

With B3 as the binder, how does the Kd read?
The Kd was 0.062 ± 0.011 µM.

Which Kd does the source give for B4 here?
The Kd was 0.0327 ± 0.003 µM.

How did the Kd turn out when B5 was run?
Its Kd is 0.04 ± 0.005 µM.

Which Kd does the source give for B6 here?
Its Kd is 0.0189 ± 0.0012 µM.

With B7 as the binder, how does the Kd read?
The Kd was 0.079 ± 0.015 µM.

For B8, which Kd is on record?
The Kd was 0.0112 ± 0.0008 µM.

For B9, which Kd is on record?
The Kd was 0.0106 ± 0.0005 µM.

Which Kd does the source give for B10 here?
The Kd was 0.054 ± 0.005 µM.

Which Kd does the source give for B11 here?
Its Kd is 0.00415 ± 0.0003 µM.

With B12 as the binder, how does the Kd read?
Its Kd is 0.037 ± 0.008 µM.

For B13, which Kd is on record?
The Kd was 0.0134 ± 0.0006 µM.

For B14, which Kd is on record?
Its Kd is roughly 0.07 µM.

B15 was tested. Which Kd did it give?
Its Kd is 0.021 ± 0.004 µM.

With B16 as the binder, how does the Kd read?
Its Kd is 0.0257 ± 0.0018 µM.

For B17, which Kd is on record?
Its Kd is roughly 0.08 µM.

Which Kd does the source give for B18 here?
Its Kd is 0.0116 ± 0.0007 µM.

Which Kd does the source give for B19 here?
Its Kd is 0.0224 ± 0.0033 µM.

B20 was tested. Which Kd did it give?
The Kd was 0.0109 ± 0.0011 µM.

How did the Kd turn out when B21 was run?
Its Kd is 0.0088 ± 0.0005 µM.

With B22 as the binder, how does the Kd read?
The Kd was 0.0113 ± 0.0011 µM.

For B23, which Kd is on record?
Its Kd is 0.044 ± 0.008 µM.

B24 was tested. Which Kd did it give?
Its Kd is 0.0122 ± 0.0006 µM.

Which Kd does the source give for B25 here?
Its Kd is 0.0166 ± 0.0016 µM.

For B26, which Kd is on record?
The Kd was 0.00432 ± 0.00023 µM.

For B27, which Kd is on record?
Its Kd is 0.0346 ± 0.0031 µM.

Which Kd does the source give for B28 here?
Its Kd is 0.029 ± 0.005 µM.

How did the Kd turn out when B29 was run?
Its Kd is roughly 0.058 µM.

B30 was tested. Which Kd did it give?
Its Kd is 0.062 ± 0.01 µM.

B31 was tested. Which Kd did it give?
The Kd was 0.0166 ± 0.0006 µM.

For B32, which Kd is on record?
The Kd was 0.0169 ± 0.0009 µM.

How did the Kd turn out when B33 was run?
Its Kd is 0.042 ± 0.007 µM.
